20 sequences from the Immune Epitope Database (IEDB) can be followed below.

One test deals with HLA-A*02:01. Description: IEDB peptide-MHC binding, purified MHC/competitive/radioactivity; filed as Kd, often an IC50 or EC50 that approximates it; ≥ and ≤ were set here for values at or beyond the usual limits of such assays. To be noted: source organism: Trypanosoma cruzi.
For the next test, the target named is HLA-A*02:03. Described as above. To be noted: source organism: Trypanosoma cruzi.
Another test has as its target HLA-A*02:02. The test is described as above. Conditions: source organism: Trypanosoma cruzi.
In a further test the target is HLA-A*02:06. The description is as above. To be noted: source organism: Trypanosoma cruzi.
Another test concerns the target HLA-A*68:02. Described as above. To be noted: source organism: Trypanosoma cruzi.
The next test concerns the target HLA-B*46:01. Description: IEDB peptide-MHC binding, purified MHC/competitive/fluorescence; filed as Kd, often an IC50 or EC50 that approximates it; ≥ and ≤ were set here for values at or beyond the usual limits of such assays. Conditions: source organism: Shigella flexneri 5 str. 8401.
For test [1], the target named is HLA-B*40:01. Kind of test: IEDB peptide-MHC binding, purified MHC/competitive/radioactivity; filed as Kd, often an IC50 or EC50 that approximates it; ≥ and ≤ were set here for values at or beyond the usual limits of such assays.
Another test deals with HLA-B*45:01. Described as above.
The next test concerns the target HLA-B*40:02. Described as above.
For a further test, the target named is HLA-B*44:02. The description is as above.
Test [2] addresses HLA-B*18:01. The test is described as above.
The next test deals with HLA-B*44:03. Described as above.
Test [3] deals with HLA-B*18:01. Description: IEDB peptide-MHC binding, purified MHC/direct/fluorescence; filed as Kd, often an IC50 or EC50 that approximates it; ≥ and ≤ were set here for values at or beyond the usual limits of such assays.
The target of a further test is HLA-A*26:01. Description: IEDB peptide-MHC binding, purified MHC/competitive/fluorescence; filed as Kd, often an IC50 or EC50 that approximates it; ≥ and ≤ were set here for values at or beyond the usual limits of such assays. To be noted: source organism: Bacillus anthracis str. A0488.
For another test, the target named is HLA-B*15:01. The test is described as above. Conditions: source organism: Bacillus anthracis str. A2012.
The target in the next test is HLA-B*51:01. The description is as above.
In test [4] the target is HLA-B*40:01. Kind of test: IEDB peptide-MHC binding, purified MHC/direct/fluorescence; filed as Kd, often an IC50 or EC50 that approximates it; ≥ and ≤ were set here for values at or beyond the usual limits of such assays. To be noted: source organism: West Nile virus.
[5] abbreviates: source organism: SARS coronavirus Tor2.
Where [6] appears, read: source organism: Mammarenavirus lassaense.
The mark [7] stands for this setting: source organism: Mammarenavirus brazilense.
[8] abbreviates: source organism: Lymphocytic choriomeningitis virus (strain Armstrong).
The mark [9] stands for this setting: source organism: Mammarenavirus juninense.

Regarding HVGRPTTVV, the Kd with HLA-A*02:01 was determined as 9.86 µM; with HLA-A*02:03, 0.452 µM; with HLA-A*02:02, 1.06 µM; with HLA-A*02:06 it was 0.639 µM; in the test with HLA-A*68:02, 0.0211 µM.
Consider LAMYHGQTY, for which the dissociation constant Kd with HLA-B*46:01 was ≥ 20 µM.
As for QESLTTTSTA, the equilibrium dissociation constant (Kd) in the test with HLA-B*40:01 [1] (setting [5]) was 10.2 µM; with HLA-B*45:01 (setting [5]), 0.0396 µM; with HLA-B*40:02 (setting [5]), 0.146 µM; with HLA-B*44:02 (setting [5]), 7.11 µM; with HLA-B*18:01 [2] (setting [5]) it was ≥ 70.5 µM; in the test with HLA-B*44:03 (setting [5]) it was 0.682 µM.
In the case of EELITDVEFL, the Kd with HLA-B*40:01 [1] (setting [6]) was determined as 3.12 µM; with HLA-B*45:01 (setting [6]) it was 17.9 µM; with HLA-B*40:02 (setting [6]), 9.85 µM; with HLA-B*44:02 (setting [6]), 5.16 µM; in the test with HLA-B*18:01 [2] (setting [6]) it was 19 µM; in the test with HLA-B*44:03 (setting [6]), 6.37 µM.
As to YDQLLDSSL, the dissociation constant Kd is 9.99 µM with HLA-B*40:01 [1] (setting [7]); ≥ 77.7 µM with HLA-B*45:01 (setting [7]); 0.273 µM with HLA-B*40:02 (setting [7]); ≥ 26.5 µM with HLA-B*44:02 (setting [7]); 15.4 µM with HLA-B*18:01 [2] (setting [7]); ≥ 78.1 µM with HLA-B*44:03 (setting [7]).
In the test with HLA-B*18:01 [3] (source organism: Burkholderia ambifaria AMMD), DELPFVAPV yielded a dissociation constant (Kd) of 0.0006 µM.
As to TVKSFLNFY, in the test with HLA-A*26:01, the Kd stood at 0.0072 µM.
Take LEQWNLVIGF: the Kd in the test with HLA-B*40:01 [1] (setting [5]) was determined as 3.94 µM; with HLA-B*45:01 (setting [5]), 3.98 µM; with HLA-B*40:02 (setting [5]), 0.565 µM; in the test with HLA-B*44:02 (setting [5]), 0.0161 µM; in the test with HLA-B*18:01 [2] (setting [5]), 0.155 µM; in the test with HLA-B*44:03 (setting [5]), 0.0488 µM.
In the test with HLA-B*15:01, IAIEFKSRF returned a Kd of 0.279 µM.
Regarding VESSSKLWA, the Kd with HLA-B*40:01 [1] (setting [5]) is ≥ 42.2 µM; with HLA-B*45:01 (setting [5]) it was 0.267 µM; with HLA-B*40:02 (setting [5]), 3.16 µM; in the test with HLA-B*44:02 (setting [5]), 3.34 µM; with HLA-B*18:01 [2] (setting [5]), 1.25 µM; with HLA-B*44:03 (setting [5]), 1.6 µM.
For YDFVLVGPC, the Kd with HLA-B*40:01 [1] (setting [6]) was 3.34 µM; with HLA-B*45:01 (setting [6]) it was 7.22 µM; with HLA-B*40:02 (setting [6]), 0.836 µM; with HLA-B*44:02 (setting [6]) it was 1 µM; with HLA-B*18:01 [2] (setting [6]) it was ≥ 24 µM; with HLA-B*44:03 (setting [6]), 6.83 µM.
In the test with HLA-B*51:01 (source organism: Vibrio vulnificus YJ016), EPYPPKGPV showed a Kd of 0.828 µM.
Consider FPSVRYQNI, for which the dissociation constant (Kd) with HLA-B*51:01 (source organism: Yersinia pestis KIM10+) stood at 1.02 µM.
For the sequence GITRPTTLV, the dissociation constant Kd in the test with HLA-A*02:01 was ≥ 92.6 µM; with HLA-A*02:03, 1.15 µM; with HLA-A*02:02 it was 13.7 µM; in the test with HLA-A*02:06 it was 12.2 µM; with HLA-A*68:02, 11.9 µM.
Take ADYSVLYNST: the Kd was ≥ 69.6 µM in the test with HLA-B*40:01 [1] (setting [5]); 0.768 µM with HLA-B*45:01 (setting [5]); ≥ 30.2 µM with HLA-B*40:02 (setting [5]); 1.97 µM with HLA-B*44:02 (setting [5]); ≥ 70.5 µM in the test with HLA-B*18:01 [2] (setting [5]); ≥ 45.7 µM in the test with HLA-B*44:03 (setting [5]).
Consider IEVALRTLLL, for which the Kd in the test with HLA-B*40:01 [1] (setting [8]) is 1.29 µM; with HLA-B*45:01 (setting [8]), ≥ 70 µM; with HLA-B*40:02 (setting [8]), 0.0241 µM; in the test with HLA-B*44:02 (setting [8]), 9.31 µM; in the test with HLA-B*18:01 [2] (setting [8]), 1.71 µM; with HLA-B*44:03 (setting [8]), 1.83 µM.
Regarding REIGSLLHGL, the dissociation constant (Kd) with HLA-B*40:01 [1] (setting [7]) is 9.19 µM; with HLA-B*45:01 (setting [7]), 2.75 µM; in the test with HLA-B*40:02 (setting [7]), 0.00584 µM; in the test with HLA-B*44:02 (setting [7]), 0.764 µM; in the test with HLA-B*18:01 [2] (setting [7]), ≥ 30.4 µM; in the test with HLA-B*44:03 (setting [7]), 0.878 µM.
Regarding MEEPAPAGF, the figures for the Kd with HLA-B*40:01 [4] and with HLA-B*18:01 [3] (source organism: West Nile virus) were 2.57 µM and 0.0198 µM, respectively.
EDIDSVETL: the dissociation constant (Kd) is 1.88 µM in the test with HLA-B*40:01 [1] (setting [9]); ≥ 24.3 µM in the test with HLA-B*45:01 (setting [9]); 1.25 µM in the test with HLA-B*40:02 (setting [9]); 12.3 µM with HLA-B*44:02 (setting [9]); 14.4 µM in the test with HLA-B*18:01 [2] (setting [9]); ≥ 28.3 µM with HLA-B*44:03 (setting [9]).
For the sequence NENPGGYCL, the Kd with HLA-B*40:01 [1] (setting [6]) turned out to be 4.92 µM; with HLA-B*45:01 (setting [6]), 0.178 µM; in the test with HLA-B*40:02 (setting [6]), 0.278 µM; with HLA-B*44:02 (setting [6]), 0.152 µM; in the test with HLA-B*18:01 [2] (setting [6]) it was 0.0731 µM; with HLA-B*44:03 (setting [6]), 0.259 µM.

The Kd is the free concentration of one partner at which half of the binding sites on the other are occupied at equilibrium, for simple one-to-one binding.
